Laboratory results reported in the supplement of paper PMC12764529.
± gives the half width of the 95% confidence interval.

Experiment: folding stability dG unfold from trypsin proteolysis; higher = more stable
In short: (§1)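 Designed mini-proteins with no cysteine and under 80 residues were kept only if AlphaFold2 dimer inter-PAE was above 15. In a PA-tagged cDNA display construct, they were digested with trypsin and chymotrypsin and then sequenced. K50 was inferred by Bayesian fitting of counts, and unfolding free energy was derived per protease or combined against a sequence-predicted unfolded-state K50 and a shared folded-state K50.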

Sequence	folding stability dG unfold [kcal/mol]
SAGGSAGGSAGMRPVTSVYYDPNTGRLYARFPDGVVANYELTPDGSVRLVSVAPAHPDLDSAGGSAGGSAGG [r17_61_TrMRF]	0.992 ± 0.04
SAGKWVTIEIPIYIPGNPSQLKDLVEEIANILAAHGMKINVDVEVYPVDDYYIVKITVTVRMPPGMPIISAG [r5_217_TrROS]	3.75 ± 0.17
SAGGMVIVFPAPKDISPDELRELIEAEVGPLAEELGLTEASIPIAKVEELPEGSRRVVAVIELRFDGSAGGS [r8_184_TrMRF]	0.977 ± 0.027
SAATLPPGTKVLTLTVTVRVPPGVSVEDLAAALAAELRRRLGPGAKITVTVTYDPETDTLTVTVTVVLPPSA [r9_657_TrROS_Hall]	3.53 ± 0.091
SAGGSAGPPKPGKIELEFEDPSGGKKYKVDIYIYPNNEVKTKALNPDGTPIPEEEIKKILKKLGLKSAGGSA [r15_872_JUSTAS]	0.37 ± 0.082
SAGGSPERSAEELAEELAERIRELLREEAASFELPLHVHIVVPDPEGRRREFDVEVHVRVEVPEDARSAGGS [r16_550_TrMRF]	0.898 ± 0.025
SAGGSAMVSLEEAKEATLREVKAALGFSPDATPEELRARGVPVRVPITVRDEKGNVIAELELELPGSAGGSA [r15_391_JUSTAS]	-0.118 ± 0.04
SAGGSAGGSAGGSKKYFFKIKKIKVETKLEVNEDGSLTEEKKIEIEIELRELPSLEDLLSAGGSAGGSAGGS [r4_450_TrROS_Hall]	3.56 ± 0.25
SAGGMFKVYEVTGKDAKVTIVEAPLPDGGKLVVVEVWEGGKPVKPFLVPVAELEEIAKAIGIKPEELKSAGG [r13_108_TrMRF]	1.05 ± 0.027
SAGGSAGGEEAPPPPVTVTVTIEVEENEDGTLTVRIEVRDEATGETRTITVTMTLEELEELAKASAGGSAGG [r6_995_TrROS_Hall]	2.78 ± 0.11
SAGGSAGGSAGGLVLTSTSFTSSNTMVVTTTTLTTNADGSLSTTSTTTTTPVPPPKPGLPSAGGSAGGSAGG [r11_728_JUSTAS]	0.161 ± 0.042
SAGGSAGGSAGSPVVTTEKVKTEGNTTVYRVTEPALNTETLVTEDAGANPTIKTTTYNTPSAGGSAGGSAGG [r11_738_JUSTAS]	-0.955 ± 0.21
SAGGSADKITVRVMPSPDGMYRVKIWHPGKKREYWMNPDDPDKMLEEFADEINPDRPIKVEVEPYKSAGGSA [r15_925_TrROS]	-0.919 ± 0.87
GLTVTLDGNSLTVTADAGDKTVTVTAPVFHPEKGLVTVVTVTATREDGALVLHTESRTIRLPPLPPLHPDLS [r1_100_TrMRF]	2.21 ± 0.29
SAGGSAGGSLVLPDDYKVIVREFDLSDVGRAVREVMEEFDVKDALFLAVPLPGKVLLFVVVKESAGGSAGGS [r12_929_TrMRF]	2.95 ± 0.098
SAGGSAGGSKPEYVLRVKIYNEETGELVEEIEITVKSKEEALKALKKLLPKDNVKIEVEILPPSAGGSAGGS [r12_578_TrROS_Hall]	3.34 ± 0.11
SAGGSAGGSAGEKTLKIVADSEEEAEALAKELAEKYNLEVTIERNPEEEGKYVITIKIKPSAGGSAGGSAGG [r11_797_TrROS_Hall]	2.46 ± 0.14
SAGGEAEVVARAEVTLPDGVKVEVEVVRVDGKLVVRVRVEVRLPPPPPPPPPPLPPLSEEERKKLAEASAGG [r13_760_TrROS_Hall]	2.09 ± 0.091
SAGGSASSSLEVEVTAESPDPETGELRVTAVITTTYFDPSTGSTSTTTTTLTLTPEELAALVAALSSAGGSA [r2_357_JUSTAS]	3.92 ± 0.071
SAGGKTIEIEVKVPPGMTEEEVAKKLAEELAKELEKKTGKEIKIEIEKVEKLPNGERKVRIKIEVKPSAGGS [r8_156_TrROS_Hall]	1.42 ± 0.035
SAGGSAGGSMLTIEKPMPGTTEEEALEYAEELKEKNPNYKIEVEIEKTEEGYLTVKIKLTKKESAGGSAGGS [r12_425_JUSTAS]	1.31 ± 0.12

Sequence	folding stability dG unfold [kcal/mol]
SAGKLVLKPGETVEIGDMTIHFHPDGRVSATFPDGRSAAIRVTVDTDTDVVGFEFVEEHPDVGHTDAPGSAG [r5_33_TrMRF]	1.74 ± 0.1
SAGGSAGGESSRLVAVFKFPPSNPNIKTSISFPSLPKSAKISESQAPFGNEYYLVVVIEVPKNSSAGGSAGG [r6_480_TrMRF]	2.6 ± 0.16
SAGLKVESQTYDPATGTATVTPPLEGVPPDYTITVTDTATGKKTTLPPDGDVTLSNPTGPVTVTLTRPASAG [r14_134_JUSTAS]	0.152 ± 0.038
SAGGSAGGSKAEVFETPDGLVVVVVPTEDSVRAFVFFPDGYIAEFDFPTGKIVRIFSPDEEIASAGGSAGGS [r12_235_TrMRF]	2.8 ± 0.09
SAGGSAGGSAGMIKIEETVVLPDGTVVRKEKEIEPPNGKTTTLKTETVPVLSPGSESLLLSAGGSAGGSAGG [r11_919_JUSTAS]	0.429 ± 0.041
SAGGSAGGSAKPKPVETVEVTVTGKDGKKYKVTVVYDEKTGKLYVKYNGKIYKVDSLEEALKSAGGSAGGSA [r18_67_TrROS_Hall]	2.44 ± 0.19
SAGMVVENPGTETRVVFDPETGELYVEVGDKVYRIPLPPGVEVEFEVDPEAGTIRVYFPNTGEVLELPLSAG [r5_858_TrMRF]	4.19 ± 0.13
SAGGSAGGSYKIDKIEVQPPPGGYYQATIEVEQVDPENGNPQRQEQEIPVPANDPKQIKDFLKSAGGSAGGS [r12_691_TrROS]	-0.523 ± 0.19
SAGGSAGGSAGGKTIRFKAKSPEEIAEKIKKGEEILTPDGKPVKITKVEPLPDGSVLITGSAGGSAGGSAGG [r11_48_TrMRF]	0.0865 ± 0.17
SAGGMEVREIDVENEDGHNVKIEIWWMPGEGWIMVKIEGPNPALIDDIQKEIGLPILEVMKDGYLMIKSAGG [r13_937_TrROS]	1.16 ± 0.03
SAGGSAGGSAGKKKVLMTVDEIEKKLGKKIKPGSLVLVEVENGKVKKIEIFDVKKKPKKKSAGGSAGGSAGG [r11_616_TrROS_Hall]	0.943 ± 0.09
SAGDEIEEKVKEILEKLNPDEPVVIKRTKDGRILAENPKTGKFIIFDISPDGTIKIVKVVPAEEAKKLGSAG [r5_852_TrMRF]	1.47 ± 0.12
KTVMIMFKNPEQILNQLREARDDGKTVSIMFPDEWINELKNLGFKIDKITDVQPMPGNDSYMVEIKIKPKDS [r1_173_TrROS]	1.29 ± 0.12
SAGGSAGGKPIWEFELEFPDGYKIRITYWPGYVRVEIHNPDGRQLEVNVPGKSPEDALDALLDASAGGSAGG [r6_459_TrROS]	3.32 ± 0.22
SATAVVIKAEVIFPNNEKKEISVVIENLTEEEVEELAEELEKKIKEEAGIPDIEVKIKVETFAKDDPAFSAG [r14_207_TrMRF]	0.438 ± 0.16
SAGGLLPALLAPGFRKPPELPLVVVEAPIEEAVALAKENPSLGVLLVRVGGKLYLIDPKTGKVAPLGSAGGS [r16_214_TrMRF]	0.767 ± 0.018
SAGGSAGGSASITYENGYATITLKVPEGTVRIVDLATNEVIEIKPGDTVTIRVKIPPPPPESAGGSAGGSAG [r3_185_TrROS_Hall]	2.31 ± 0.095
SAGGSAGGGMTAEELAAKAIEEALKAGETVTVEIEVTNPNGETFTLELTLVVVDPDDPEALEALSAGGSAGG [r6_534_TrROS_Hall]	1.64 ± 0.057
SAGMKKVIELTIPVTGPEEVEELVAKLEEEEPAVPVERRPDPRLGAVRVVVEKKFPDSIVYITLTAAASAGG [r19_262_JUSTAS]	0.784 ± 0.042
SAGGSAGGKWIHINPNSYNIKIQDPGSGKEEEIQFDSPEELIDEIKKQFPGVPVEIHPNGWFKISAGGSAGG [r6_288_TrROS]	0.385 ± 0.022
SAGGSAGGSAGKKIPKKIIPKINLKVELVKSKIYYDKKKKKIVKIEYEFKITYPNGFKATSAGGSAGGSAGG [r11_890_TrMRF]	1.44 ± 0.053

Experiment: folding stability dG unfold from chymotrypsin proteolysis; higher = more stable
In short: as §1

Sequence	folding stability dG unfold [kcal/mol]
SAGGSAGGSAGMRPVTSVYYDPNTGRLYARFPDGVVANYELTPDGSVRLVSVAPAHPDLDSAGGSAGGSAGG [r17_61_TrMRF]	1.64 ± 0.059
SAGKWVTIEIPIYIPGNPSQLKDLVEEIANILAAHGMKINVDVEVYPVDDYYIVKITVTVRMPPGMPIISAG [r5_217_TrROS]	3.23 ± 0.1
SAGGMVIVFPAPKDISPDELRELIEAEVGPLAEELGLTEASIPIAKVEELPEGSRRVVAVIELRFDGSAGGS [r8_184_TrMRF]	0.332 ± 0.048
SAATLPPGTKVLTLTVTVRVPPGVSVEDLAAALAAELRRRLGPGAKITVTVTYDPETDTLTVTVTVVLPPSA [r9_657_TrROS_Hall]	4.66 ± 0.078
SAGGSAGPPKPGKIELEFEDPSGGKKYKVDIYIYPNNEVKTKALNPDGTPIPEEEIKKILKKLGLKSAGGSA [r15_872_JUSTAS]	1.75 ± 0.12
SAGGSPERSAEELAEELAERIRELLREEAASFELPLHVHIVVPDPEGRRREFDVEVHVRVEVPEDARSAGGS [r16_550_TrMRF]	1.14 ± 0.034
SAGGSAMVSLEEAKEATLREVKAALGFSPDATPEELRARGVPVRVPITVRDEKGNVIAELELELPGSAGGSA [r15_391_JUSTAS]	0.571 ± 0.046
SAGGSAGGSAGGSKKYFFKIKKIKVETKLEVNEDGSLTEEKKIEIEIELRELPSLEDLLSAGGSAGGSAGGS [r4_450_TrROS_Hall]	4.62 ± 0.17
SAGGMFKVYEVTGKDAKVTIVEAPLPDGGKLVVVEVWEGGKPVKPFLVPVAELEEIAKAIGIKPEELKSAGG [r13_108_TrMRF]	1.9 ± 0.082
SAGGSAGGEEAPPPPVTVTVTIEVEENEDGTLTVRIEVRDEATGETRTITVTMTLEELEELAKASAGGSAGG [r6_995_TrROS_Hall]	2.56 ± 0.13
SAGGSAGGSAGGLVLTSTSFTSSNTMVVTTTTLTTNADGSLSTTSTTTTTPVPPPKPGLPSAGGSAGGSAGG [r11_728_JUSTAS]	0.509 ± 0.092
SAGGSAGGSAGSPVVTTEKVKTEGNTTVYRVTEPALNTETLVTEDAGANPTIKTTTYNTPSAGGSAGGSAGG [r11_738_JUSTAS]	-0.937 ± 0.83
SAGGSADKITVRVMPSPDGMYRVKIWHPGKKREYWMNPDDPDKMLEEFADEINPDRPIKVEVEPYKSAGGSA [r15_925_TrROS]	0.913 ± 0.16
GLTVTLDGNSLTVTADAGDKTVTVTAPVFHPEKGLVTVVTVTATREDGALVLHTESRTIRLPPLPPLHPDLS [r1_100_TrMRF]	4.18 ± 0.57
SAGGSAGGSLVLPDDYKVIVREFDLSDVGRAVREVMEEFDVKDALFLAVPLPGKVLLFVVVKESAGGSAGGS [r12_929_TrMRF]	2.9 ± 0.076
SAGGSAGGSKPEYVLRVKIYNEETGELVEEIEITVKSKEEALKALKKLLPKDNVKIEVEILPPSAGGSAGGS [r12_578_TrROS_Hall]	3.09 ± 0.25
SAGGSAGGSAGEKTLKIVADSEEEAEALAKELAEKYNLEVTIERNPEEEGKYVITIKIKPSAGGSAGGSAGG [r11_797_TrROS_Hall]	3.5 ± 0.045
SAGGEAEVVARAEVTLPDGVKVEVEVVRVDGKLVVRVRVEVRLPPPPPPPPPPLPPLSEEERKKLAEASAGG [r13_760_TrROS_Hall]	2.09 ± 0.16
SAGGSASSSLEVEVTAESPDPETGELRVTAVITTTYFDPSTGSTSTTTTTLTLTPEELAALVAALSSAGGSA [r2_357_JUSTAS]	4.35 ± 0.049
SAGGKTIEIEVKVPPGMTEEEVAKKLAEELAKELEKKTGKEIKIEIEKVEKLPNGERKVRIKIEVKPSAGGS [r8_156_TrROS_Hall]	1.8 ± 0.18
SAGGSAGGSMLTIEKPMPGTTEEEALEYAEELKEKNPNYKIEVEIEKTEEGYLTVKIKLTKKESAGGSAGGS [r12_425_JUSTAS]	0.879 ± 0.12
